Columns and labels:
amylin monomers, P10997 = target: T1, amylin monomers, P10997; experiment: ELISA, amyloid coated at 1 µg/well, His-tagged ZR detected with HRP-linked antibody
T1 chain: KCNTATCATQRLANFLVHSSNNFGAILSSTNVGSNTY

Aβ42 oligomers, P05067 = experiment: as above
amylin oligomers, P10997 = target: T2, amylin oligomers, P10997; experiment: as above
T2 chain: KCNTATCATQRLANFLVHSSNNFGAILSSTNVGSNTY

amylin fibers, P10997 = target: T3, amylin fibers, P10997; experiment: as above
T3 chain: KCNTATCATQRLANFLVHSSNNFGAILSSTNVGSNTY

Aβ42 monomers, P05067 = experiment: as above
Aβ42 fibers, P05067 = experiment: as above
lysozyme = experiment: cell-based or functional assay
amylin = amylin (UniProt P10997); experiment: cell-based or functional assay
insulin = experiment: cell-based or functional assay
Aβ42 = Aβ42 (UniProt P05067); experiment: cell-based or functional assay
Chain of Aβ42 (P05067 672-713 limits assumed): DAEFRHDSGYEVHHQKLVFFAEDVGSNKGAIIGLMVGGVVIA

Chain of Aβ42 oligomers, P05067 (P05067 672-713 limits assumed): as above
Chain of Aβ42 fibers, P05067 (P05067 672-713 limits assumed): as above
Chain of Aβ42 monomers, P05067 (P05067 672-713 limits assumed): as above

## SFFNNKR (modifications not checked) [histidine-tagged ZR polypeptide (SEQ ID NO. 2)]
Amylin monomers, P10997
  OD450: 0.41
Aβ42 oligomers, P05067
  OD450: 0.38
Amylin oligomers, P10997
  OD450: 0.5
Amylin fibers, P10997
  OD450: 0.18
Aβ42 monomers, P05067
  OD450: 0.34
Aβ42 fibers, P05067
  OD450: 0.35

## SFFNNKR [ZR polypeptide (SEQ ID NO. 2)]
lysozyme
  ThT fluorescence value, lysozyme with ZR at a molar ratio of 1:1 (lysozyme alone: 310000): 220000
  ThT fluorescence value, lysozyme with ZR at a molar ratio of 1:10 (lysozyme alone: 310000): 170000
  cell activity of SH-SY5Y cells (MTT), lysozyme:ZR=1:1 group (lysozyme group: 55%): 85%
  cell activity of SH-SY5Y cells (MTT), lysozyme:ZR=1:10 group (lysozyme group: 55%): 93%
  cytotoxicity inhibited, molar ratio 1:10: 118%
amylin
  ThT fluorescence value, amylin with ZR at a molar ratio of 1:1 (amylin alone: 38000): 41000
  ThT fluorescence value, amylin with ZR at a molar ratio of 1:10 (amylin alone: 38000): 43000
  cell activity of SH-SY5Y cells (MTT), Amylin:ZR=1:1 group (Amylin group: 61%): 70%
  cell activity of SH-SY5Y cells (MTT), Amylin:ZR=1:10 group (Amylin group: 61%): 75%
  cytotoxicity inhibited, molar ratio 1:10: 45.4%
insulin
  ThT fluorescence value, insulin with ZR at a molar ratio of 1:1 (insulin alone: 305000): 305000
  ThT fluorescence value, insulin with ZR at a molar ratio of 1:10 (insulin alone: 305000): 310000
  cell activity of SH-SY5Y cells (MTT), insulin:ZR=1:1 group (insulin group: 77%): 92%
  cell activity of SH-SY5Y cells (MTT), insulin:ZR=1:5 group (insulin group: 77%): 102%
  cytotoxicity inhibited, molar ratio 1:5: 89.8%
Aβ42
  ThT fluorescence value, Aβ42 with ZR at a molar ratio of 1:1 (Aβ42 alone: 26500): 22000
  ThT fluorescence value, Aβ42 with ZR at a molar ratio of 1:10 (Aβ42 alone: 26500): 17000
  cell activity of SH-SY5Y cells (MTT), Aβ:ZR=1:0.5 group (Aβ42 group: 71%): 80%
  cell activity of SH-SY5Y cells (MTT), Aβ:ZR=1:1 group (Aβ42 group: 71%): 82%
  cytotoxicity inhibited, molar ratio 1:1: 37.8%
